Target: T1, FLAG-TBC1D9Bα from a stable HEK293 cell line (human, UniProt Q66K14-1 1-1250)
T1 construct: human TBC1D9B, alpha splice form, in pcDNA3.1-FLAG; also called FLAG-tagged recombinant TBC1D9B; source: purified (anti-FLAG M2 beads, eluted with glycine HCl) for the pull-down; in lysate for the co-IP
Test: pull-down; GST fusion on glutathione-sepharose beads, incubated with recombinant FLAG-TBC1D9B or His-LC3B at 4 °C for 1 hour; 20 mM Tris pH 7.4, 0.1 mM EDTA, 100 mM NaCl; SDS-PAGE with Coomassie Brilliant Blue
Conditions: both partners purified

T1 sequence (Q66K14 whole entry, canonical isoform): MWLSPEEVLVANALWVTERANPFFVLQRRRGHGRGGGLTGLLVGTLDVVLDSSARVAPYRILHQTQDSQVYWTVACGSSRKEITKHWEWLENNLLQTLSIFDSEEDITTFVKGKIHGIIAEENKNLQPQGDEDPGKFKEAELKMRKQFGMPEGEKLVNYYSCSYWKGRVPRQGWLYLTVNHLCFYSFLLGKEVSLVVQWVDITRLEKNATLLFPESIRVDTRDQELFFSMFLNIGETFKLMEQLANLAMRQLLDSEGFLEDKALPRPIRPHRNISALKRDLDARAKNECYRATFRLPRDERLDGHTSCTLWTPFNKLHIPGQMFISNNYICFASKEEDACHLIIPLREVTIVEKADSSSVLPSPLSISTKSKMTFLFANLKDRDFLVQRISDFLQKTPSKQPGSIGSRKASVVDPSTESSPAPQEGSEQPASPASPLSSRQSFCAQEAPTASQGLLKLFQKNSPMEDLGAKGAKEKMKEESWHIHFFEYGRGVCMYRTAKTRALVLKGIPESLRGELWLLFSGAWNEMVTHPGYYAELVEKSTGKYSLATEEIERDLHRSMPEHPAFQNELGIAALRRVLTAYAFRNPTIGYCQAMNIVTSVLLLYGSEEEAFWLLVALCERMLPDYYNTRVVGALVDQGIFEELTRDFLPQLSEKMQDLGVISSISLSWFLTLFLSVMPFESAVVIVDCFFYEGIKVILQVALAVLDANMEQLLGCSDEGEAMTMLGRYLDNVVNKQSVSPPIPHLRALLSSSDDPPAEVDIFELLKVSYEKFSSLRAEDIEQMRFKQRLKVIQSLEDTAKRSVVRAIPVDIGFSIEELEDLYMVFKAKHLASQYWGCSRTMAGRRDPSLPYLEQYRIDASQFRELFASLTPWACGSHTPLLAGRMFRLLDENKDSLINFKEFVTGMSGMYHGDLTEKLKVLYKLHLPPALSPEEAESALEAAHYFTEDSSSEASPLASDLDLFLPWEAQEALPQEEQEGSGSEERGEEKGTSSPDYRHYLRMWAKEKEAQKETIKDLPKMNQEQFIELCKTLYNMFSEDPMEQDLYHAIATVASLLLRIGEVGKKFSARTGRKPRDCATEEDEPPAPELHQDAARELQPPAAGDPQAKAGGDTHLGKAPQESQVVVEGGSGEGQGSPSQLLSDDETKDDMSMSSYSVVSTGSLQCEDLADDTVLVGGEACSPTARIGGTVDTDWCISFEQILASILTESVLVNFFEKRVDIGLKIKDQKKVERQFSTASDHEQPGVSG

B1: recombinant GST-GABARAP (natural protein, human, UniProt O95166 1-117, looked up)
chain: MKFVYKEEHPFEKRRSEGEKIRKKYPDRVPVIVEKAPKARIGDLDKKKYLVPSDLTVGQFYFLIRKRIHLRAEDALFFFVNNVIPPTSATMGQLYQEHHEEDFFLYIAYSDESVYGL
notes: human GABARAP, cloned into pGEX-6p; also called GST-fused GABARAP; source: E. coli BL21, purified (glutathione-sepharose)
- binding result: binds

From PMC6131546, “Interaction of TBC1D9B with Mammalian ATG8 Homologues Regulates Autophagic Flux” (Scientific Reports, 2018)
